In patent US20180291110A1 (Hoffmann-La Roche, published 2018):

molecular target: T1, human transferrin receptor (recombinant, for surface plasmon resonance) (human, UniProt P02786 89-760); assay: SPR
T1 construct: also called huTfR; human transferrin receptor-biotinylated
T1 sequence (P02786 89-760 limits assumed): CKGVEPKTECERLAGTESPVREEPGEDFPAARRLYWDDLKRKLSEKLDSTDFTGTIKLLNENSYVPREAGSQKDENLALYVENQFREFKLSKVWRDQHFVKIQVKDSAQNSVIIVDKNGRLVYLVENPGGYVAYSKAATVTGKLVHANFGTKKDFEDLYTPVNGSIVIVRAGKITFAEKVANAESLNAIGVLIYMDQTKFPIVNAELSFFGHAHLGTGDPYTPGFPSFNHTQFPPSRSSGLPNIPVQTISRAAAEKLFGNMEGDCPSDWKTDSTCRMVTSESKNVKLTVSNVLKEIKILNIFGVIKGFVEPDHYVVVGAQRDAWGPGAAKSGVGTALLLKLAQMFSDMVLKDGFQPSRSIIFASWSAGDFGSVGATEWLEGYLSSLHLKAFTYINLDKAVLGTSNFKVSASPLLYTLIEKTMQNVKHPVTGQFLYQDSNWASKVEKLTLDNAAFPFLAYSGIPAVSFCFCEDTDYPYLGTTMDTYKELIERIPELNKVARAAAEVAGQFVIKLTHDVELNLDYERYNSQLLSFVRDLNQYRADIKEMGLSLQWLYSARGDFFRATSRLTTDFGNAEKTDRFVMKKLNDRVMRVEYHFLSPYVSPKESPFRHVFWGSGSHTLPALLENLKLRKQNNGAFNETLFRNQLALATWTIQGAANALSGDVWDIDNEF

Binder	koff [s⁻¹]
4/94 SEQ ID NO 195 / SEQ ID NO 201 (antibody, V domains shown) VH: QVQLVQSGAEVKKPGASVKVSCKASGFNIKDTYIHWVIQAPGQGLEWMGRIDPANGDTKSAPKFQVRVTITADTSTSTVYMELSSLRSEDTAVYYCVRDYLYPYYFDFWGQGTTVTVSS VL: KIQMTQSPSSLSASVGDRVTITCRASESVDTYVSWYQQKPGKAPKLLIYGASNRYTGVPSRFSGSGSGTDFTLTISSLQPEDFADYYCGQTYNYPLTFGQGTKLEI	0.000399
4/94 SEQ ID NO 196 / SEQ ID NO 207 (antibody, V domains shown) VH: QVQLVQSGAEVKKPGASVKVSCKASGFNIKDTYIHWVIQAPGQGLEWMGRIDPANGDTKSDPKFQGRVTITADTSTSTVYMELSSLRSEDTAVYYCVRDYLYPYYFDFWGQGTTVTVSS VL: KIVLTQSPGTLSLSPGERATLSCRASESVDTYVSWYQQKPGQAPRLLIYGASNRYTGVPDRFSGSGSGTDFTLTISRLEPEDFADYYCGQTYNYPLTFGQGTKLEI	0.00043
4/94 SEQ ID NO 194 / SEQ ID NO 209 (antibody, V domains shown) VH: QVQLVQSGAEVKKPGASVKVSCKASGFNIKDTYIHWVIQAPGQGLEWMGRIDPANGDTKSDPKFQVRVTITADTSTSTVYMELSSLRSEDTAVYYCVRDYLYPYYFDFWGQGTTVTVSS VL: KIVLTQSPGTLSLSPGERATLSCRASESVDTYVSWYQQKPGQAPRLLIYGASNRYTGIPDRFSGSGSGTDFTLTISRLEPEDFADYYCGQTYNYPLTFGQGTKLEI	0.000448
4/94 SEQ ID NO 195 / SEQ ID NO 207 (antibody, V domains shown) VH: QVQLVQSGAEVKKPGASVKVSCKASGFNIKDTYIHWVIQAPGQGLEWMGRIDPANGDTKSAPKFQVRVTITADTSTSTVYMELSSLRSEDTAVYYCVRDYLYPYYFDFWGQGTTVTVSS VL: KIVLTQSPGTLSLSPGERATLSCRASESVDTYVSWYQQKPGQAPRLLIYGASNRYTGVPDRFSGSGSGTDFTLTISRLEPEDFADYYCGQTYNYPLTFGQGTKLEI	0.000426
4/94 SEQ ID NO 196 / SEQ ID NO 208 (antibody, V domains shown) VH: QVQLVQSGAEVKKPGASVKVSCKASGFNIKDTYIHWVIQAPGQGLEWMGRIDPANGDTKSDPKFQGRVTITADTSTSTVYMELSSLRSEDTAVYYCVRDYLYPYYFDFWGQGTTVTVSS VL: EIVLTQSPGTLSLSPGERATLSCRASESVDTYVSWYQQKPGQAPRLLIYGASNRYTGVPDRFSGSGSGTDFTLTISRLEPEDFADYYCGQTYNYPLTFGQGTKLEI	0.000434
4/94 SEQ ID NO 194 / SEQ ID NO 207 (antibody, V domains shown) VH: QVQLVQSGAEVKKPGASVKVSCKASGFNIKDTYIHWVIQAPGQGLEWMGRIDPANGDTKSDPKFQVRVTITADTSTSTVYMELSSLRSEDTAVYYCVRDYLYPYYFDFWGQGTTVTVSS VL: KIVLTQSPGTLSLSPGERATLSCRASESVDTYVSWYQQKPGQAPRLLIYGASNRYTGVPDRFSGSGSGTDFTLTISRLEPEDFADYYCGQTYNYPLTFGQGTKLEI	0.000454
4/94 SEQ ID NO 194 / SEQ ID NO 208 (antibody, V domains shown) VH: QVQLVQSGAEVKKPGASVKVSCKASGFNIKDTYIHWVIQAPGQGLEWMGRIDPANGDTKSDPKFQVRVTITADTSTSTVYMELSSLRSEDTAVYYCVRDYLYPYYFDFWGQGTTVTVSS VL: EIVLTQSPGTLSLSPGERATLSCRASESVDTYVSWYQQKPGQAPRLLIYGASNRYTGVPDRFSGSGSGTDFTLTISRLEPEDFADYYCGQTYNYPLTFGQGTKLEI	0.000476
4/94 SEQ ID NO 195 / SEQ ID NO 208 (antibody, V domains shown) VH: QVQLVQSGAEVKKPGASVKVSCKASGFNIKDTYIHWVIQAPGQGLEWMGRIDPANGDTKSAPKFQVRVTITADTSTSTVYMELSSLRSEDTAVYYCVRDYLYPYYFDFWGQGTTVTVSS VL: EIVLTQSPGTLSLSPGERATLSCRASESVDTYVSWYQQKPGQAPRLLIYGASNRYTGVPDRFSGSGSGTDFTLTISRLEPEDFADYYCGQTYNYPLTFGQGTKLEI	0.000415
4/94 SEQ ID NO 195 / SEQ ID NO 209 (antibody, V domains shown) VH: QVQLVQSGAEVKKPGASVKVSCKASGFNIKDTYIHWVIQAPGQGLEWMGRIDPANGDTKSAPKFQVRVTITADTSTSTVYMELSSLRSEDTAVYYCVRDYLYPYYFDFWGQGTTVTVSS VL: KIVLTQSPGTLSLSPGERATLSCRASESVDTYVSWYQQKPGQAPRLLIYGASNRYTGIPDRFSGSGSGTDFTLTISRLEPEDFADYYCGQTYNYPLTFGQGTKLEI	0.000438
4/94 SEQ ID NO 199 / SEQ ID NO 207 (antibody, V domains shown) VH: QVQLQESGPGLVKPSETLSLTCTVSGFNIKDTYIHWVIQRPGKGLEWIGRIDPANGDTKSDPSLQSRVTISADTSKNQASLKLSSVTAADTAVYYCVRDYLYPYYFDFWGQGTTVTVSS VL: KIVLTQSPGTLSLSPGERATLSCRASESVDTYVSWYQQKPGQAPRLLIYGASNRYTGVPDRFSGSGSGTDFTLTISRLEPEDFADYYCGQTYNYPLTFGQGTKLEI	0.000527

Now from value to binder:

koff [s⁻¹]	Binder
0.000486	4/94 SEQ ID NO 199 / SEQ ID NO 201 (antibody, V domains shown) VH: QVQLQESGPGLVKPSETLSLTCTVSGFNIKDTYIHWVIQRPGKGLEWIGRIDPANGDTKSDPSLQSRVTISADTSKNQASLKLSSVTAADTAVYYCVRDYLYPYYFDFWGQGTTVTVSS VL: KIQMTQSPSSLSASVGDRVTITCRASESVDTYVSWYQQKPGKAPKLLIYGASNRYTGVPSRFSGSGSGTDFTLTISSLQPEDFADYYCGQTYNYPLTFGQGTKLEI
0.000684	4/94 SEQ ID NO 198 / SEQ ID NO 201 (antibody, V domains shown) VH: QVQLVQSGAEVKKPGSSVKVSCKASGFNIKDTYIHWVIQRPGQGLEWMGRIDPANGDTKSDPKFQGRVTITADESTSTAYMELSSLRSEDTAVYYCVRDYLYPYYFDFWGQGTTVTVSS VL: KIQMTQSPSSLSASVGDRVTITCRASESVDTYVSWYQQKPGKAPKLLIYGASNRYTGVPSRFSGSGSGTDFTLTISSLQPEDFADYYCGQTYNYPLTFGQGTKLEI
0.000657	4/94 SEQ ID NO 197 / SEQ ID NO 201 (antibody, V domains shown) VH: QVQLVQSGAEVKKPGSSVKVSCKASGFNIKDTYIHWVIQAPGQGLEWMGRIDPANGDTKSDPKFQGRVTITADESTSTAYMELSSLRSEDTAVYYCVRDYLYPYYFDFWGQGTTVTVSS VL: KIQMTQSPSSLSASVGDRVTITCRASESVDTYVSWYQQKPGKAPKLLIYGASNRYTGVPSRFSGSGSGTDFTLTISSLQPEDFADYYCGQTYNYPLTFGQGTKLEI
0.000717	4/94 SEQ ID NO 198 / SEQ ID NO 208 (antibody, V domains shown) VH: QVQLVQSGAEVKKPGSSVKVSCKASGFNIKDTYIHWVIQRPGQGLEWMGRIDPANGDTKSDPKFQGRVTITADESTSTAYMELSSLRSEDTAVYYCVRDYLYPYYFDFWGQGTTVTVSS VL: EIVLTQSPGTLSLSPGERATLSCRASESVDTYVSWYQQKPGQAPRLLIYGASNRYTGVPDRFSGSGSGTDFTLTISRLEPEDFADYYCGQTYNYPLTFGQGTKLEI
0.000717	4/94 SEQ ID NO 198 / SEQ ID NO 207 (antibody, V domains shown) VH: QVQLVQSGAEVKKPGSSVKVSCKASGFNIKDTYIHWVIQRPGQGLEWMGRIDPANGDTKSDPKFQGRVTITADESTSTAYMELSSLRSEDTAVYYCVRDYLYPYYFDFWGQGTTVTVSS VL: KIVLTQSPGTLSLSPGERATLSCRASESVDTYVSWYQQKPGQAPRLLIYGASNRYTGVPDRFSGSGSGTDFTLTISRLEPEDFADYYCGQTYNYPLTFGQGTKLEI
0.000705	4/94 SEQ ID NO 197 / SEQ ID NO 209 (antibody, V domains shown) VH: QVQLVQSGAEVKKPGSSVKVSCKASGFNIKDTYIHWVIQAPGQGLEWMGRIDPANGDTKSDPKFQGRVTITADESTSTAYMELSSLRSEDTAVYYCVRDYLYPYYFDFWGQGTTVTVSS VL: KIVLTQSPGTLSLSPGERATLSCRASESVDTYVSWYQQKPGQAPRLLIYGASNRYTGIPDRFSGSGSGTDFTLTISRLEPEDFADYYCGQTYNYPLTFGQGTKLEI
0.000683	4/94 SEQ ID NO 197 / SEQ ID NO 208 (antibody, V domains shown) VH: QVQLVQSGAEVKKPGSSVKVSCKASGFNIKDTYIHWVIQAPGQGLEWMGRIDPANGDTKSDPKFQGRVTITADESTSTAYMELSSLRSEDTAVYYCVRDYLYPYYFDFWGQGTTVTVSS VL: EIVLTQSPGTLSLSPGERATLSCRASESVDTYVSWYQQKPGQAPRLLIYGASNRYTGVPDRFSGSGSGTDFTLTISRLEPEDFADYYCGQTYNYPLTFGQGTKLEI
0.000703	4/94 SEQ ID NO 197 / SEQ ID NO 207 (antibody, V domains shown) VH: QVQLVQSGAEVKKPGSSVKVSCKASGFNIKDTYIHWVIQAPGQGLEWMGRIDPANGDTKSDPKFQGRVTITADESTSTAYMELSSLRSEDTAVYYCVRDYLYPYYFDFWGQGTTVTVSS VL: KIVLTQSPGTLSLSPGERATLSCRASESVDTYVSWYQQKPGQAPRLLIYGASNRYTGVPDRFSGSGSGTDFTLTISRLEPEDFADYYCGQTYNYPLTFGQGTKLEI
0.000452	4/94 SEQ ID NO 196 / SEQ ID NO 209 (antibody, V domains shown) VH: QVQLVQSGAEVKKPGASVKVSCKASGFNIKDTYIHWVIQAPGQGLEWMGRIDPANGDTKSDPKFQGRVTITADTSTSTVYMELSSLRSEDTAVYYCVRDYLYPYYFDFWGQGTTVTVSS VL: KIVLTQSPGTLSLSPGERATLSCRASESVDTYVSWYQQKPGQAPRLLIYGASNRYTGIPDRFSGSGSGTDFTLTISRLEPEDFADYYCGQTYNYPLTFGQGTKLEI
0.000728	4/94 SEQ ID NO 198 / SEQ ID NO 209 (antibody, V domains shown) VH: QVQLVQSGAEVKKPGSSVKVSCKASGFNIKDTYIHWVIQRPGQGLEWMGRIDPANGDTKSDPKFQGRVTITADESTSTAYMELSSLRSEDTAVYYCVRDYLYPYYFDFWGQGTTVTVSS VL: KIVLTQSPGTLSLSPGERATLSCRASESVDTYVSWYQQKPGQAPRLLIYGASNRYTGIPDRFSGSGSGTDFTLTISRLEPEDFADYYCGQTYNYPLTFGQGTKLEI
0.000381	4/94 SEQ ID NO 199 / murine VL (antibody, V domains shown) VH: QVQLQESGPGLVKPSETLSLTCTVSGFNIKDTYIHWVIQRPGKGLEWIGRIDPANGDTKSDPSLQSRVTISADTSKNQASLKLSSVTAADTAVYYCVRDYLYPYYFDFWGQGTTVTVSS VL: KIVMTQSPKSMSMSVGERVTLNCRASESVDTYVSWYQQKPEQSPELLIYGASNRYTGVPDRFTGSGSATDFTLTISSVQAEDLADYYCGQTYNYPLTFGAGTKLELKR
0.00055	4/94 SEQ ID NO 199 / SEQ ID NO 208 (antibody, V domains shown) VH: QVQLQESGPGLVKPSETLSLTCTVSGFNIKDTYIHWVIQRPGKGLEWIGRIDPANGDTKSDPSLQSRVTISADTSKNQASLKLSSVTAADTAVYYCVRDYLYPYYFDFWGQGTTVTVSS VL: EIVLTQSPGTLSLSPGERATLSCRASESVDTYVSWYQQKPGQAPRLLIYGASNRYTGVPDRFSGSGSGTDFTLTISRLEPEDFADYYCGQTYNYPLTFGQGTKLEI
